Experimental data: US20260109774A1 (JUNO THERAPEUTICS, published 2026)

T1: human B-cell maturation antigen (BCMA) on cells (human, UniProt Q02223 1-184)
T1 construct: Recombinant on HEK293 or K562 cells, or endogenous on cell lines (H929, RPMI 8226, OPM2, MM1S, Daudi); also called hBCMA; huBCMA
T1 chain: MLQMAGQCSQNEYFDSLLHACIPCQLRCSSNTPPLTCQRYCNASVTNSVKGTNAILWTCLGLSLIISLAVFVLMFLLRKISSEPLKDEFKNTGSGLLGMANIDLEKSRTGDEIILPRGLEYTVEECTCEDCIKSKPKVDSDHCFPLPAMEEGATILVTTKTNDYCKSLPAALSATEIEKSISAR


Biological target: T1, human B-cell maturation antigen (BCMA) …
Experiment: flow cytometry on BCMA-expressing HEK293 cells vs control cells, crude lysate or bacterial supernatant; clone listed in Table E2
Experimental: Specific binding of resulting scFv clones to BCMA-expressing HEK293 cells, as compared to control cells not expressing BCMA, was assessed by flow cytometry either with in vitro translated crude cell lysate or with bacterially-produced supernatant.

| binding result | Binder |
| --- | --- |
| binds | BCMA-8 scFv (scFv) scFv: QVQLVQSGGGLVQPGRSLRLSCTASGFTFGDYAMSWFRQAPGKGLEWVGFIRSKAYGGTTEYAASVKGRFTISRDDSKSIAYLQMNSLKTEDTAVYYCAAWSAPTDYWGQGTLVTVSSGGGGSGGGGSGGGGSDIVMTQSPDSLAVSLGERATINCKSSQSVLYSSNNKNYLAWYQQKPGQPPKLLIYWASTRESGVPDRFSGSGSGTDFTLTISSLQAEDVAVYYCQQYYSTPYTFGQGTKLEIK |
| binds | BCMA-31 scFv (scFv) scFv: EVQLVQSGGGLVQPGRSLRLSCTASGFTFGDYAMSWFRQAPGKGLEWVGFIRSKAYGGTTEYAASVKGRFTISRDDSKSIAYLQMNSLKTEDTAVYYCAAWSAPTDYWGQGTLVTVSSGGGGSGGGGSGGGGSDVVMTQSPDSLAVSLGERATISCKSSQSVLNSSNNKNYVAWYKQKPGQPPKLVISWASTRESGVPDRFSGSGSGTDFTLTISSLQAEDVAVYYCQQYYSTPYTFGQGTKLDIK |
| binds | BCMA-46 scFv (scFv) scFv: QVQLVQSGGGLVQPGRSLRLSCTASGFTFGDYAMSWFRQAPGKGLEWVGFIRSKAYGGTTEYAASVKGRFTISRDDSKSIAYLQMNSLKTEDTAVYYCAAWSAPTDYWGQGTLVTVSSGGGGSGGGGSGGGGSDIVMTQSPDSLVVSLGERATINCKSSQSVLHSSNNKNYLAWYQQKPGQPPKLLIYWASTRESGVPDRFSGSGSGTDFTLTISSLQAEDVAVYYCQQYYTTPLTFGGGTKVEIK |
| binds | BCMA-3 scFv (scFv) scFv: QVQLVQSGGGLVQPGRSLRLSCTASGFTFGDYAMSWFRQAPGKGLEWVGFIRSKAYGGTTEYAASVKGRFTISRDDSKSIAYLQMNSLKTEDTAVYYCAAWSAPTDYWGQGTLVTVSSGGGGSGGGGSGGGGSDIVMTQSPDSLVVSLGERATINCKSSQSVLHSSNNKNYLAWYQQKPGQPPKLLIYWASTRESGVPDRFSGSGSGTDFTLTISSLQAEDVAVYYCQQYYTTPLTFGGGTKVEIK |
| binds | BCMA-44 scFv (scFv) scFv: EVQLVQSGGGLVQPGRSLRLSCTASGFTFGDYAMSWFRQAPGKGLEWVGFIRSKAYGGTTEYAASVKGRFTISRDDSKSIAYLQMNSLKTEDTAVYYCAAWSAPTDYWGQGTLVTVSSGGGGSGGGGSGGGGSDVVMTQSPDSLAVSLGERATINCKSSQNLLYSSNNKNYLAWYQQKPGQPPKLLIYWASTRESGVPDRFSGSGSGTDFTLTISSLQAEDVAVYYCQQYYSSPYTFGQGTKLEIK |
| binds | BCMA-15 scFv (scFv) scFv: QVQLLESGGGLVKPGGSLRLSCAASGFTFSSYGMHWVRQAPGKGLEWVAVISYDGSNKYYADSVKGRFTISRDNSKNTLYLQMNSLRAEDTAVYYCAKDQYSSSAQRADFDYWGQGTLVTVSSGGGGSGGGGSGGGGSQSVLTQPPSASGTPGQRVTISCSGSGSNIGSNDVSWYQQIPGTAPKLLIYWNDQRPSGVPDRFSGSKSGTSASLVISGLRSEDEADYYCAAWDDSLSGWVFGGGTKLTVL |
| binds | BCMA-17 scFv (scFv) scFv: QVQLVQSGGGLVKPGGSLRLSCAASGFTFSDYYMSWIRLAPGKGLEWVSYISSSGSTIYYADSVKGRFTISRDNAKNSLYLQMNSLRAEDTAVYYCAREADSSADYWGQGTLVNVSSGGGGSGGGGSGGGGSQPVLTQPPSVSVAPGKTAMITCGGNNIGFKGVQWYQQKTGQAPVLVVYDDSDRPSGIPERFSGSNSGNTATLTISRVEAGDEADYYCQVWDSASDHWVFGGGTKLTVL |
| binds | BCMA-33 scFv (scFv) scFv: QVQLVQSGGGLVKPGGSLRLSCAASGFTFSDYYMSWIRQAPGKGLEWVSYISGSGSTIYYADSVKGRFTISRDNAKNSLYLQMNSLRAEDTAVYYCAREADSSADYWGQGTLVNVSSGGGGSGGGGSGGGGSQPVLTQPPSVSVAPGKTAMITCGGNNIGFKGVQWYQQKTGQAPVLVVYDDSDRPSGIPERFSGSNSGNTATLTISRVEAGDEADYYCQVWDSASDHWVFGGGTKLTVL |
| binds | BCMA-6 scFv (scFv) scFv: QVQLVQSGGGLVQPGRSLRLSCTASGFTFGDYAMSWFRQAPGKGLEWVGFIRSKAYGGTTEYAASVKGRFTISRDDSKSIAYLQMNSLKTEDTAVYYCAAWSAPTDYWGQGTLVTVSSGGGGSGGGGSGGGGSDIVMTQSPSSLSVSVGERVTITCRASQSISNSLAWYKQRPGEAPKLLIHAASNVEDGVPSRFSGRGSGTVFTLAISNVQPEDFATYYCQQSHMYPPTFGGGTKVEIK |
| binds | BCMA-11 scFv (scFv) scFv: QVQLVQSGGGLVQPGRSLRLSCAASGFTFDDYAMHWVRRAPGKGLEWVSGISWNSGSIGYADSVKGRFTISRDNAKNSLYLQMNSLRAEDTAVYYCARDLGPDYDPDAFDIWGQGTMVTVSSGGGGSGGGGSGGGGSQLVLTQPPSASGTPGQRVTISCSGSSSNIGSNAVNWYQQLPGTAPEVLIYNSHQRPSGVPDRFSGSKSGTSASLAINGLQSEDEADYYCAAWDDSLRGYVFGTGTKLTVL |
| binds | BCMA-12 scFv (scFv) scFv: EVQLVESGGGLVKPGGSLRLSCAASGFTFSDYYMSWIRQAPGKGLEWVSYISSSGSTIYYADSVKGRFTISRDNAKNSLYLQMNSLRAEDTAVYYCAKVDGPPSFDIWGQGTMVTVSSGGGGSGGGGSGGGGSQSALTQPPSVSAAPGQKVTISCSGSRSNIGNNYVSWYQQLPGTAPKLLIYDNAKRPSGIPDRFSGSKSGTSATLDIAGLQTGDEADYYCQVWDSSSDHWVFGGGTKLTVL |
| binds | BCMA-21 scFv (scFv) scFv: EVQLVESGGGLVKPGGSLKLSCAASGFTFSDYYMSWIRQAPGKGLEWVSYISSSGSTIYYADSVKGRFTISRDNAKNSLYLQMNSLRAEDTAVYYCAKVDGGYTEDYWGQGTLVTVSSGGGGSGGGGSGGGGSQSVLTQPPSASGTPGQRVTISCSGSGSNIGSNDVSWYQQIPGTAPKLLIYWNDQRPSGVPDRFSGSKSGISASLAISGLRSEDEADYYCAAWDDSLNGYVFGTGTKVTVL |
| binds | BCMA-16 scFv (scFv) scFv: EVQLVQSGPEVKKPGTSVKVSCKASGFTFTSSAMQWVRQARGQRLEWIGWIVVGSGNTNYAQKFQERVTITRDMSTSTAYMELSSLRSEDTAVYYCAAAPYYDILTGYYLWGQGTLVTVSSGGGGSGGGGSGGGGSQSALTQPPSASGTPGQRVTISCSGSGSNIGSNDVSWYQQIPGTAPKLLIYWNDQRPSGVPDRFSGSKSGTSASLAISGLQSEDEADYYCASWDDSLSGWVFGGGTKLTVL |
| binds | BCMA-4 scFv (scFv) scFv: QVQLVQSGGGLVQPGRSLRLSCTASGFTFGDYAMSWFRQAPGKGLEWVGFIRSKAYGGTTEYAASVKGRFTISRDDSKSIAYLQMNSLKTEDTAVYYCAAWSAPTDYWGQGTLVTVSSGGGGSGGGGSGGGGSAIRMTQSPSSLSASLGDRVTITCRASQDIRNSLAWYQQRPGKAPKLLLSAASRLESGVPSRFSGTTSGAEYALSISSLQPEDVASYFCQQYYSLPLSFGGGTKVEIK |
| binds | BCMA-2 scFv (scFv) scFv: EVQLVESGGGLVKPGGSLRLSCAASGFTFSDYYMSWIRQAPGKGLEWVSYISSSGSTIYYADSVKGRFTISRDNAKNSLYLQMNSLRAEDTAVYYCAKVDGPPSSDIWGQGTMVTVSSGGGGSGGGGSGGGGSEIVMTQSPATLSVSPGETATLSCRASQSIKTNLAWYQQKPGQAPRLLIYAASTRATGIPDRFSGSGSGTDFTLTITRLEPEDFAVYYCQQYGSSPTFGRGTKLEIK |
| binds | BCMA-7 scFv (scFv) scFv: QVQLVQSGGGLVQPGRSLRLSCTASGFTFGDYAMSWFRQAPGKGLEWVGFIRSKAYGGTTEYAASVKGRFTISRDDSKSIAYLQMNSLKTEDTAVYYCAAWSAPTDYWGQGTLVTVSSGGGGSGGGGSGGGGSVIQLTQSPSSLSASVGDRVTITCRASQDIGDYLAWFQQRPGKAPKSLIYVASTLQSGVPSRFSGSGSGTHFTLTINSLQPEDFATYYCQQYHSHPWTFGPGTKVDIK |
| binds | BCMA-18 scFv (scFv) scFv: EVQLLESGGGLVQPGGSLRLSCAASGFTFSSYWMSWHRQAPGKGPEWVAHINQDGSEKYYVDSVKGRFTISRDNAESSLYLQMNSLRAEDTAVYYCARWLAVTNWGQGTLVTVSSGGGGSGGGGSGGGGSQSVLTQPPSASGTPGQRVTISCSGSGSNIGSNDVSWYQQIPGTAPKLLIYWNDQRPSGVPDRFSGSKSGTSASLAISGLRSEDEADYYCAAWDDSLNGWVFGGGTKLTVL |
| binds | BCMA-22 scFv (scFv) scFv: EVQLVESGGGLVKPGGSLRLSCAASGFTFSDYYMSWIRQAPGKGLEWVSYISSSGSTIYYADSVKGRFTISRDNAKNSLYLQMNSLRAEDTAVYYCAKVDGDYTEDYWGQGTLVTVSSGGGGSGGGGSGGGGSQSALTQPASVSGSPGQSITISCTGSSSDVGKYNLVSWYQQPPGKAPKLIIYDVNKRPSGVSNRFSGSKSGNTATLTISGLQGDDEADYYCCSYGGSRSYVFGTGTKVTVL |
| binds | BCMA-40 scFv (scFv) scFv: EVQLVESGGGLVKPGGSLRLSCAASGFTFSDYYMSWIRQAPGKGLEWVSYISSSGSTIYYADSVKGRFTISRDNAKNSLYLQMNSLRAEDTAVYYCAKVDGDYTEDYWGQGTLVTVSSGGGGSGGGGSGGGGSQSALTQPASVSGSPGQSITISCTGSSSDVSKYNLVSWYQQPPGKAPKLIIYDVNKRPSGVSNRFSGSKSGNTATLTISGLQGDDEADYYCCSYGGSRSYVFGTGTKLTVL |
